From US20130251640A1

Biological target: trypsin (trypsin-EDTA 0.25%, Sigma-Aldrich)
Assay: cell-based or functional assay

Substance: PLL-FITC (poly-L-lysine conjugated with fluorescein isothiocyanate, FITC/PLL=10/1)
- change in FITC fluorescence signal (dequenching): > 34 fold
